# Data published in patent publication US20240400677A1.
# Target: human SIRPα V1-His monomer protein (human) (UniProt P78324)
# Test: BLI Octet, V5-scFv PPE captured, SIRP-His 500 nM
# human SIRPα V1-His monomer protein (human), sequence (P78324 31-370): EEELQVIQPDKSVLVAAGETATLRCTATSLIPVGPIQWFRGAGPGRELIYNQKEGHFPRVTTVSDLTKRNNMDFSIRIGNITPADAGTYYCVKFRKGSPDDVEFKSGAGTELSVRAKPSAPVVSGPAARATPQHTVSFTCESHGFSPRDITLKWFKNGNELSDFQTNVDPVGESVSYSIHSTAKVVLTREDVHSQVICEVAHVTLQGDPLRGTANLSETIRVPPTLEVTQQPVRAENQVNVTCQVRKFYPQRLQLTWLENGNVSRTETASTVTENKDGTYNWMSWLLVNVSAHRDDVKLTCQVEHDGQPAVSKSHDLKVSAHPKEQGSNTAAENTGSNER
row,Binder,kdis [s⁻¹]
1,"Antibody 31 (scFv, V domains shown) VH: QVQLVQSGAEVKKPGASVKVSCKASGGTFRSYAISWVRQAPGQGLEWMGWMNPNSGNTGYAQKFQGRVTMTRDTSTSTVYMELSSLRSEDTAVYYCARESVLKGGMDVWGQGTTVTVSS VL: DIVMTQSPDSLAVSLGERATINCRSSQSLFHSSTNANNLAWYQQKPGQPPKLLIYWASTRESGVPDRFSGSGSGTDFTLTISSLQAEDVAVYYCQQYYITPLTFGQGTRLEIK",> 0.01
2,"Antibody 37 (scFv, V domains shown) VH: QVQLVQSGAEVKKPGASVKVSCKASGYTLNNYDINWVRQAPGQGLEWMGWISGYNGNTNYAQKLQGRVTMTRDTSTSTVYMELSSLRSEDTAVYYCARVGSSWEENDQWGQGTLVTVSS VL: DIQMTQSPSSLSASVGDRVTITCRASQSISRWLAWYQQKPGKAPKLLIYAASSLESGVPSRFSGSGSGTDFTLTISSLQPEDFATYYCQQTHSFPLTFGGGTKVEIK",> 0.01

# Other lines, results leading:
row,kdis [s⁻¹],Binder
1,> 0.01,"Antibody 28 (scFv, V domains shown) VH: QVQLVQSGAEVKKPGASVKVSCKASGYTFTSYNIHWVRQAPGQGLEWMGWISAYNGNTNYAQKLQGRVTMTRDTSTSTVYMELSSLRSEDTAVYYCALDGGQLGVAFDIWGQGTMVTVSS VL: DIQMTQSPSSLSASVGDRVTITCRASQGISNWLAWYQQKPGKAPKLLIYDASNLDAGVPSRFSGSGSGTDFTLTISSLQPEDFATYYCQQANSLPLTFGGGTKVEIK"
2,> 0.01,"Antibody 11 (scFv, V domains shown) VH: QVQLVQSGAEVKKPGASVKVSCKASGYTFTSYDINWVRQAPGQGLEWMGWMNPNSGNTGYAQKFQGRVTMTRDTSTSTVYMELSSLRSEDTAVYYCAKGAVAGTYYYYGMDVWGQGTTVTVSS VL: DIQMTQSPSSLSASVGDRVTITCRASQTINNYLNWYQQKPGKAPKLLIYDASNLETGVPSRFSGSGSGTDFTLTISSLQPEDFATYYCQQANSFPLTFGQGTKVEIK"
